Assay results reported in paper doi:10.1101/2022.05.13.491839 (bioRxiv, 2022).

What was measured:
Test in all cases: liposome flotation assay
[1] = molecular target: T1, VAP-A^His sL1/2 (human, UniProt Q9P0L0 8-132; Q9P0L0 165-206)
T1 chain: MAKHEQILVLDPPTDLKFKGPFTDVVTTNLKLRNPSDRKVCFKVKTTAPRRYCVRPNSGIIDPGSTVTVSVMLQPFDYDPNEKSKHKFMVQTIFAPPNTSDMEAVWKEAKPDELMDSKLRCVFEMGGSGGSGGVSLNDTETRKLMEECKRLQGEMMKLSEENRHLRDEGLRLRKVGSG

[2] = molecular target: T2, VAP-A^His sL1 (human, UniProt Q9P0L0 8-132; Q9P0L0 165-230)
T2 chain: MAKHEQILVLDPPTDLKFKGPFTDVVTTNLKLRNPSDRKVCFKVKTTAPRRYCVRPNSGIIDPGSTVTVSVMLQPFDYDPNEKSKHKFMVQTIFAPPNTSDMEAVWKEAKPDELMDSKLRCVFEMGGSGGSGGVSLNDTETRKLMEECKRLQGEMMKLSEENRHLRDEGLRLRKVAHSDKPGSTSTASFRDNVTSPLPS

[3] = molecular target: T3, VAP-A^His sL2 (human, UniProt Q9P0L0 8-206)
T3 chain: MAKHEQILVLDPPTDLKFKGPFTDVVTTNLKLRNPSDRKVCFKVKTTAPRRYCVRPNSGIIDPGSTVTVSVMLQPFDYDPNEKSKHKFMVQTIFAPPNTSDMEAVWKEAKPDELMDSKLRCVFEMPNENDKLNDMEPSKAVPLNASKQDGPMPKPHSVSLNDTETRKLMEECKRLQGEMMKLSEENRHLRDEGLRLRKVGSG

[4] = molecular target: T4, VAP-A^His WT (human, UniProt Q9P0L0 8-230)
T4 sequence (looked up): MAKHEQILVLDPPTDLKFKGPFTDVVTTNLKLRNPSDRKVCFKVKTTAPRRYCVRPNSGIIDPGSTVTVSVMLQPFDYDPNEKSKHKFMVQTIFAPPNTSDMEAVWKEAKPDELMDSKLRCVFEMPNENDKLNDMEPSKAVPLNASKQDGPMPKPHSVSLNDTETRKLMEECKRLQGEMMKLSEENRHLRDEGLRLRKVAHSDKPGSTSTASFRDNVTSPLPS

binding result [1]: binds
binding result [2]: binds
binding result [3]: binds
binding result [4]: binds
B1: FFAT peptide (peptide)
peptide: WCSGKGDMSDEDDENEFFDAPEIITMPENLGH
